According to US20220064329A1 (Novo Nordisk, published 2022):

T1: recombinant human activated Factor VII (FVIIa) (human, UniProt P08709 61-212; P08709 213-466, ten glutamate residues of the Gla domain may be gamma-carboxylated)
T1 sequence 1: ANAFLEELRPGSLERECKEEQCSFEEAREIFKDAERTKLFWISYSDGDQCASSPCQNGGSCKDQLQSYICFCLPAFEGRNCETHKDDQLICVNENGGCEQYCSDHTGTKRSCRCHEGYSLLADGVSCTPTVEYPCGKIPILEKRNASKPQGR
T1 sequence 2: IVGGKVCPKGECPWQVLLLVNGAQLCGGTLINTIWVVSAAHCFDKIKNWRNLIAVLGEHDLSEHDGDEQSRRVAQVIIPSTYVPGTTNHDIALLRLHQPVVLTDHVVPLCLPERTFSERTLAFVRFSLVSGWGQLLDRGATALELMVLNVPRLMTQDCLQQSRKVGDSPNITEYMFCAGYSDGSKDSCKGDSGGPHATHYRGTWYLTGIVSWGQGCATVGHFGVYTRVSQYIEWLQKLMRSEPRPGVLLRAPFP


Columns and labels:
[1] = target: T1, recombinant human activated Factor VII …; test: cell-based or functional assay
[2] = target: T1, recombinant human activated Factor VII …; test: SPR (Biacore)

| Binder | AT inhibition (kinh %) [1] [%] | TGT activity (%% FVIIa) [1] [%] | Kd [2] [nM] |
| --- | --- | --- | --- |
| mAb0138(OA) (antibody, human IgG4 S228P, kappa, one-armed (OA) antibody, constant domain type E) heavy: not shown light: EIVLTQSPATLSLSPGERATLSCRASQGISDYLHWYQQKPGEAPRLLIKYTSQPATGIPARFSGSGSGTDFTLTISSLEPEDVGVYYCQNGHSFPLTFGAGTKLELKRTVAAPSVFIFPPSDEQLKSGTASVVCLLNNFYPREAKVQWKVDNALQSGNSQESVTEQDSKDSTYSLSSTLTLSKADYEKHKVYACEVTHQGLSSPVTKSFNRGEC VESKYGPPCPPCPAPEFLGGPSVFLFPPKPKDTLMISRTPEVTCVVVDVSQEDPEVQFNWYVDGVEVHNAKTKPREEQFNSTYRVVSVLTVLHQDWLNGKEYKCKVSNKGLPSSIEKTISKAKGQPREPQVYTLPPSQEEMTKNQVSLTCLVKGFYPSDIAVEWESNGQPENNYKTTPPVLDSDGSFLLYSKLTVDKSRWQEGNVFSCSVMHEALHNHYTQKSLSLSLGK | 105 | 99 | 0.13 |
| mAb0709(OA) (antibody, human IgG4 S228P, kappa, one-armed (OA) antibody, constant domain type F (knob-in-hole)) heavy: QVQLQESGPGLVKPSQTLSLTCTVSGYSISSDSAWSWIRQPPGKGLEWIGYIQYSGSTNYNPSLKSRVTISRDTSKNQFSLKLSSVTAADTAVYYCARSVNYYGNSFAVGPWGQGTLVTVSSASTKGPSVFPLAPCSRSTSESTAALGCLVKDYFPEPVTVSWNSGALTSGVHTFPAVLQSSGLYSLSSVVTVPSSSLGTKTYTCNVDHKPSNTKVDKRVESKYGPPCPPCPAPEFLGGPSVFLFPPKPKDTLMISRTPEVTCVVVDVSQEDPEVQFNWYVDGVEVHNAKTKPREEQFNSTYRVVSVLTVLHQDWLNGKEYKCKVSNKGLPSSIEKTISKAKGQPREPQVYTLPPSQEEMTKNQVSLSCAVKGFYPSDIAVEWESNGQPENNYKTTPPVLDSDGSFFLVSRLTVDKSRWQEGNVFSCSVMHEALHNHYTQKSLSLSLGK light: EIVLTQSPATLSLSPGERATLSCRASQGISDYLHWYQQKPGEAPRLLIKYTSQPATGIPARFSGSGSGTDFTLTISSLEPEDFAVYYCQNGHSFPLTFGQGTKLEIKRTVAAPSVFIFPPSDEQLKSGTASVVCLLNNFYPREAKVQWKVDNALQSGNSQESVTEQDSKDSTYSLSSTLTLSKADYEKHKVYACEVTHQGLSSPVTKSFNRGEC not shown | 137 | 103 | 0.104 |
| mAb0143(OA) (antibody, human IgG4 S228P, kappa, one-armed (OA) antibody, constant domain type E) heavy: not shown light: EIVLTQSPATLSLSPGERATLSCRASQGISDYLHWYQQKPGEAPRLLIKYTSQPATGIPARFSGSGSGTDFTLTISSLEPEDFGVYYCQNGHSFPLTFGAGTKLELKRTVAAPSVFIFPPSDEQLKSGTASVVCLLNNFYPREAKVQWKVDNALQSGNSQESVTEQDSKDSTYSLSSTLTLSKADYEKHKVYACEVTHQGLSSPVTKSFNRGEC VESKYGPPCPPCPAPEFLGGPSVFLFPPKPKDTLMISRTPEVTCVVVDVSQEDPEVQFNWYVDGVEVHNAKTKPREEQFNSTYRVVSVLTVLHQDWLNGKEYKCKVSNKGLPSSIEKTISKAKGQPREPQVYTLPPSQEEMTKNQVSLTCLVKGFYPSDIAVEWESNGQPENNYKTTPPVLDSDGSFLLYSKLTVDKSRWQEGNVFSCSVMHEALHNHYTQKSLSLSLGK | 109 | 107 | 0.079 |
| mAb0142(OA) (antibody, human IgG4 S228P, kappa, one-armed (OA) antibody, constant domain type E) heavy: not shown light: EIVLTQSPATLSLSPGERATLSCRASQGISSYLHWYQQKPGEAPRLLIKYTSQPATGIPARFSGSGSGTDFTLTISSLEPEDVGVYYCQNGHSFPLTFGAGTKLELKRTVAAPSVFIFPPSDEQLKSGTASVVCLLNNFYPREAKVQWKVDNALQSGNSQESVTEQDSKDSTYSLSSTLTLSKADYEKHKVYACEVTHQGLSSPVTKSFNRGEC VESKYGPPCPPCPAPEFLGGPSVFLFPPKPKDTLMISRTPEVTCVVVDVSQEDPEVQFNWYVDGVEVHNAKTKPREEQFNSTYRVVSVLTVLHQDWLNGKEYKCKVSNKGLPSSIEKTISKAKGQPREPQVYTLPPSQEEMTKNQVSLTCLVKGFYPSDIAVEWESNGQPENNYKTTPPVLDSDGSFLLYSKLTVDKSRWQEGNVFSCSVMHEALHNHYTQKSLSLSLGK | 114 | 106 | 1 |
| mAb0140(OA) (antibody, human IgG4 S228P, kappa, one-armed (OA) antibody, constant domain type E) heavy: not shown light: EIVLTQSPATLSLSPGERATLSCRASQGISDYLHWYQQKPGEAPRLLIKYTSQPATGIPARFSGSGSGTDFTLTISSLEPEDVGVYYCQNGHSFPLTFGAGTKLELKRTVAAPSVFIFPPSDEQLKSGTASVVCLLNNFYPREAKVQWKVDNALQSGNSQESVTEQDSKDSTYSLSSTLTLSKADYEKHKVYACEVTHQGLSSPVTKSFNRGEC VESKYGPPCPPCPAPEFLGGPSVFLFPPKPKDTLMISRTPEVTCVVVDVSQEDPEVQFNWYVDGVEVHNAKTKPREEQFNSTYRVVSVLTVLHQDWLNGKEYKCKVSNKGLPSSIEKTISKAKGQPREPQVYTLPPSQEEMTKNQVSLTCLVKGFYPSDIAVEWESNGQPENNYKTTPPVLDSDGSFLLYSKLTVDKSRWQEGNVFSCSVMHEALHNHYTQKSLSLSLGK | 106 | 100 | 0.083 |
| mAb0705(OA) (antibody, human IgG4 S228P, kappa, one-armed (OA) antibody, constant domain type F (knob-in-hole); also called monovalent humanized 11F2) heavy: QVQLQESGPGLVKPSQTLSLTCTVSGYSISSDSAWSWIRQPPGKGLEWIGYIQYSGSTNYNPSLKSRVTISRDTSKNQFSLKLSSVTAADTAVYYCARSVNYYGNSFAVGYWGQGTLVTVSSASTKGPSVFPLAPCSRSTSESTAALGCLVKDYFPEPVTVSWNSGALTSGVHTFPAVLQSSGLYSLSSVVTVPSSSLGTKTYTCNVDHKPSNTKVDKRVESKYGPPCPPCPAPEFLGGPSVFLFPPKPKDTLMISRTPEVTCVVVDVSQEDPEVQFNWYVDGVEVHNAKTKPREEQFNSTYRVVSVLTVLHQDWLNGKEYKCKVSNKGLPSSIEKTISKAKGQPREPQVYTLPPSQEEMTKNQVSLSCAVKGFYPSDIAVEWESNGQPENNYKTTPPVLDSDGSFFLVSRLTVDKSRWQEGNVFSCSVMHEALHNHYTQKSLSLSLGK light: EIVLTQSPATLSLSPGERATLSCRASQGISDYLHWYQQKPGEAPRLLIKYTSQPATGIPARFSGSGSGTDFTLTISSLEPEDFAVYYCQNGHSFPLTFGQGTKLEIKRTVAAPSVFIFPPSDEQLKSGTASVVCLLNNFYPREAKVQWKVDNALQSGNSQESVTEQDSKDSTYSLSSTLTLSKADYEKHKVYACEVTHQGLSSPVTKSFNRGEC not shown | 129 | 100 | 0.0505 |
| mAb0706(OA) (antibody, human IgG4 S228P, kappa, one-armed (OA) antibody, constant domain type F (knob-in-hole)) heavy: QVQLQESGPGLVEPSQTLSLTCTVSGYSISSDSAWSWIRQPPGKGLEWIGYIQYSGSTNYNPSLKSRVTISRDTSKNQFSLKLSSVTAADTAVYYCARSVNYYGNSFAVGYWGQGTLVTVSSASTKGPSVFPLAPCSRSTSESTAALGCLVKDYFPEPVTVSWNSGALTSGVHTFPAVLQSSGLYSLSSVVTVPSSSLGTKTYTCNVDHKPSNTKVDKRVESKYGPPCPPCPAPEFLGGPSVFLFPPKPKDTLMISRTPEVTCVVVDVSQEDPEVQFNWYVDGVEVHNAKTKPREEQFNSTYRVVSVLTVLHQDWLNGKEYKCKVSNKGLPSSIEKTISKAKGQPREPQVYTLPPSQEEMTKNQVSLSCAVKGFYPSDIAVEWESNGQPENNYKTTPPVLDSDGSFFLVSRLTVDKSRWQEGNVFSCSVMHEALHNHYTQKSLSLSLGK light: EIVLTQSPATLSLSPGERATLSCRASQGISDYLHWYQQKPGQAPRLLIKYTSQPATGIPARFSGSGSGTDFTLTISSLEPEDFAVYYCQNGHSFPLTFGQGTKLEIKRTVAAPSVFIFPPSDEQLKSGTASVVCLLNNFYPREAKVQWKVDNALQSGNSQESVTEQDSKDSTYSLSSTLTLSKADYEKHKVYACEVTHQGLSSPVTKSFNRGEC not shown | 132 | 101 | 0.0542 |
| mAb0141(OA) (antibody, human IgG4 S228P, kappa, one-armed (OA) antibody, constant domain type E) heavy: not shown light: EIVLTQSPATLSLSPGERATLSCRASQGISDYLHWYQQKPGEAPRLLIKYTSQPATGIPARFSGSGSGTDFTLTISSLEPEDVGVYYCQNGHSFPLTFGAGTKLELKRTVAAPSVFIFPPSDEQLKSGTASVVCLLNNFYPREAKVQWKVDNALQSGNSQESVTEQDSKDSTYSLSSTLTLSKADYEKHKVYACEVTHQGLSSPVTKSFNRGEC VESKYGPPCPPCPAPEFLGGPSVFLFPPKPKDTLMISRTPEVTCVVVDVSQEDPEVQFNWYVDGVEVHNAKTKPREEQFNSTYRVVSVLTVLHQDWLNGKEYKCKVSNKGLPSSIEKTISKAKGQPREPQVYTLPPSQEEMTKNQVSLTCLVKGFYPSDIAVEWESNGQPENNYKTTPPVLDSDGSFLLYSKLTVDKSRWQEGNVFSCSVMHEALHNHYTQKSLSLSLGK | 109 | 103 | 0.078 |
| mAb0099(OA) (antibody, human IgG4 S228P, kappa) heavy: DVQLQESGPGLVEPSQSLSLTCTVTGYSITSDSAWSWIRQFPGNKLEWMGYIQYSGSTNYNPSLKSRISVTRDTSKNQFFLRLSSVTAEDTATYYCTRSVNYYGNSFAVGYWGQGTSVTVSSASTKGPSVFPLAPCSRSTSESTAALGCLVKDYFPEPVTVSWNSGALTSGVHTFPAVLQSSGLYSLSSVVTVPSSSLGTKTYTCNVDHKPSNTKVDKRVESKYGPPCPPCPAPEFLGGPSVFLFPPKPKDTLMISRTPEVTCVVVDVSQEDPEVQFNWYVDGVEVHNAKTKPREEQFNSTYRVVSVLTVLHQDWLNGKEYKCKVSNKGLPSSIEKTISKAKGQPREPQVYTLPPSQEEMTKNQVSLSCAVKGFYPSDIAVEWESNGQPENNYKTTPPVLDSDGSFFLVSRLTVDKSRWQEGNVFSCSVMHEALHNHYTQKSLSLSLGK light: DIVMTQSPATLSVTAGDRVSLSCRASQGISDYLHWYQQKSHESPRLLIKYTSQPVSGIPSRFSGSGSGSEFTLSINSVEPEDVGVYYCQNGHSFPLTFGAGTKLELKRTVAAPSVFIFPPSDEQLKSGTASVVCLLNNFYPREAKVQWKVDNALQSGNSQESVTEQDSKDSTYSLSSTLTLSKADYEKHKVYACEVTHQGLSSPVTKSFNRGEC not shown | 117 | 98 | 0.12 |
